{"source": "paper PMC4995097", "about": "“Talin-KANK1 interaction controls the recruitment of cortical microtubule stabilizing complexes to focal adhesions” (eLife, 2016)", "system": "GFP-talin1", "test": "Streptavidin pull down of BioGFP-KANK1 constructs with GFP-talin1, Western blot", "assay_type": "binding, mouse", "text": "BioGFP-tagged KANK1 mutants were constructed using PCR and pBioGFP-C1 vector as previously described ([van der Vaart et al., 2013]). Rescue constructs for BioGFP-tagged KANK1 were either based on the version previously described ([van der Vaart et al., 2013]) or a version obtained by PCR-based mutagenesis of the sequence […] to […]. mCherry-tagged paxillin construct was made by replacing GFP from pQC-GPXN ([Bouchet et al., 2011]) by mCherry (pmCherry-C1, Clontech). TagRFP-tagged paxillin construct was made by PCR-based amplification and cloning in pTagRFP-T-C1 (kind gift from Y. Mimori-Kiyosue, Riken Institute, Japan). HA-tagged KANK1 construct was generated by cloning KANK1 coding sequence into pMT2-SM-HA (gift of C. Hoogenraad, Utrecht University, The Netherlands). pLVX-IRES-Neo (pLVIN) vectors was constructed by cloning the IRES-neomycin resistance cassette from the pQCXIN plasmid (Clontech) into the pLVX-IRES-Puro plasmid (Clontech). […]\nStreptavidin-based pull down assays of biotinylated proteins expressed using pBioGFP-C1 constructs transfected in HEK293T cells was performed and analyzed as previously described ([van der Vaart et al., 2013]). […] For RP-nanoLC-MS/MS, samples were resuspended in 10% formic acid (FA) / 5% DMSO and was analyzed using a Proxeon Easy-nLC100 (Thermo Scientific) connected to an Orbitrap Q-Exactive mass spectrometer. […]", "data": [{"molecule": "KANK1: full-length KANK1, BioGFP- or GFP-tagged; siRNA-resistant version for rescue (protein, biotinylated on the Bio tag (by BirA); left off: biotinylation (Bio) tag, end not stated, kept | GFP, end not stated, kept, full-length KANK1, BioGFP- or GFP-tagged; siRNA-resistant version for rescue) MAHTTKVNGSASGKAGDILSGDQDKEQKDPYFVETPYGYQLDLDFLKYVDDIQKGNTIKRLNIQKRRKPSVPCPEPRTTSGQQGIWTSTESLSSSNSDDNKQCPNFLIARSQVTSTPISKPPPPLETSLPFLTIPENRQLPPPSPQLPKHNLHVTKTLMETRRRLEQERATMQMTPGEFRRPRLASFGGMGTTSSLPSFVGSGNHNPAKHQLQNGYQGNGDYGSYAPAAPTTSSMGSSIRHSPLSSGISTPVTNVSPMHLQHIREQMAIALKRLKELEEQVRTIPVLQVKISVLQEEKRQLVSQLKNQRAASQINVCGVRKRSYSAGNASQLEQLSRARRSGGELYIDYEEEEMETVEQSTQRIKEFRQLTADMQALEQKIQDSSCEASSELRENGECRSVAVGAEENMNDIVVYHRGSRSCKDAAVGTLVEMRNCGVSVTEAMLGVMTEADKEIELQQQTIESLKEKIYRLEVQLRETTHDREMTKLKQELQAAGSRKKVDKATMAQPLVFSKVVEAVVQTRDQMVGSHMDLVDTCVGTSVETNSVGISCQPECKNKVVGPELPMNWWIVKERVEMHDRCAGRSVEMCDKSVSVEVSVCETGSNTEESVNDLTLLKTNLNLKEVRSIGCGDCSVDVTVCSPKECASRGVNTEAVSQVEAAVMAVPRTADQDTSTDLEQVHQFTNTETATLIESCTNTCLSTLDKQTSTQTVETRTVAVGEGRVKDINSSTKTRSIGVGTLLSGHSGFDRPSAVKTKESGVGQININDNYLVGLKMRTIACGPPQLTVGLTASRRSVGVGDDPVGESLENPQPQAPLGMMTGLDHYIERIQKLLAEQQTLLAENYSELAEAFGEPHSQMGSLNSQLISTLSSINSVMKSASTEELRNPDFQKTSLGKITGNYLGYTCKCGGLQSGSPLSSQTSQPEQEVGTSEGKPISSLDAFPTQEGTLSPVNLTDDQIAAGLYACTNNESTLKSIMKKKDGNKDSNGAKKNLQFVGINGGYETTSSDDSSSDESSSSESDDECDVIEYPLEEEEEEEDEDTRGMAEGHHAVNIEGLKSARVEDEMQVQECEPEKVEIRERYELSEKMLSACNLLKNTINDPKALTSKDMRFCLNTLQHEWFRVSSQKSAIPAMVGDYIAAFEAISPDVLRYVINLADGNGNTALHYSVSHSNFEIVKLLLDADVCNVDHQNKAGYTPIMLAALAAVEAEKDMRIVEELFGCGDVNAKASQAGQTALMLAVSHGRIDMVKGLLACGADVNIQDDEGSTALMCASEHGHVEIVKLLLAQPGCNGHLEDNDGSTALSIALEAGHKDIAVLLYAHVNFAKAQSPGTPRLGRKTSPGPTHRGSFD", "values": [{"measurement": "effect of 4A mutation on interaction with talin1 (in words)", "setting": "4A mutation introduced into the construct, HEK293T cells, Figure 3A", "value": "reduced the interaction of the full-length KANK1 with talin1"}, {"measurement": "interaction with talin1 in pull down (in words)", "setting": "BioGFP-KANK1 constructs co-expressed with GFP-talin1, HEK293T cells", "value": "The interaction between KANK1 and talin1 was confirmed by Western blotting"}]}]}
